Residue numbers refer to the chain shown, from its start.
B1: antibody 365S (antibody, V domains shown)
VH: EVQLVESGGGLVQPGGSLRLSCAASGLTFSAYEMNWVRQAPGKGLEWVSHITTSGSAIYYADSVKGRFTISRDNAKNSLHLQMNRLRADDTAVYFCARDSTIVQCSGTSCHVSTYSYMDVWGKGTTVTVSS
VL: EIVLTQSPATLSLSPGERATLSCRASQSVTTYLAWYQHKPGQAPRLLIYDASKRATGIPARFSGSGSGTDFTLTISSLEPEDFAVYHCQQRSSWPPITFGQGTRLEIK
B2: Fab generated from 233S (Fab, V domains shown)
VH: EVQLVESGGGLGQPGGSLRLSCAASGFKFKIFGMNWVRQAPGKGLEWVSYISSRSSIIYYADSVKGRFTISRDDATNSLFLQMNSLRDEDTAMYYCVRDYNLIDFVWGSLFDYWGQGILVTVSS
VL: AIRMTQSPSSLSASTGDSVTITCRASQNIASYLAWYQQIPGKAPKLLIYVASTLQSGVPSRFSGSGSGTDFTLTISSLQSEDFATYYCQQYYRYPPTFGQGTKVEIK
B3: Fab generated from 354S (Fab, V domains shown)
VH: QVQLVQSGAEVKKPGASVKVSCKASGYSFASYYIHWVRQAPGQGLEWMGIINPSGGTTSYAQKFQGRVTMTRDTSTSTVYMELSSLGSEDTAVYYCARIVDRVTIYLNGVDNYWGQGTLVTVSS
VL: EIVMTQSPATLSVSPGERVTLSCRASQSVSSNLAWFQQTPGQAPRLLIYGASTRASGVPARFSGSGSGTEFTLTISSLQSEDFAVYYCLQYNNWPPGWKYGFGQGTKLEIK
notes: also called 354S Fab
B4: Fab generated from 503S (Fab, V domains shown)
VH: QVQLVQSGAEVKKPGASVRVSCKASGYTFTSYYMHWVRQAPGQGLEWMGQINPSGGTTRYERKFQGRITVTRDTSTSTVYLELSSLRSEDTASYFCACLRDKVTYYDLWSGVDSVWGQGTLVTVSS
VL: DIQMTQSPSSLSASVGDRVTITCRASQDISTWLAWYQQKPEKAPKSLIYAASTLETGVPSRFSGSGSGTDFTLTISSLQPEDFATYYCEQYNGFPRTFGQGTKLDIK
notes: also called 503S Fab
B5: antibody 285S (antibody, V domains shown)
VH: QVQLVQSGAEVKKPGSSVKVSCKASGGTFSTYAITWVRQAPGQGLEWMGRIIPILRVANYAQKFQGRVTITADSSTSTAYMELSSLRSEDTAVYYCANLLAYCGGDCRSDYWGQGTLVTVSS
VL: EIVLTQSPGTLSLSPGERATLSCRASQSVKNSYLAWYHQKPGQAPRLLIYGASSRATGIPDRFSGSGSGTDFTLTISRLEPEDFAVYYCQQYGSSLWTFGQGTKVDVK
B6: antibody 203S (antibody, V domains shown)
VH: QVQLVQSGAEVKKPGSSVKVSCKASGGTFSSYAISWVRQAPGQGLEWLGRILPALGLANYAQKYQDRVKITADKSTSTAYMELSRLGSEDTAVYYCARDRWVGAARRGQYFDYWGQGTQVTVSS
VL: DIQMTQSPATLSASVGDRVTITCRASQSIGTWLAWYQQKPGKAPKLLIYDASSLESGVPPRFSGSGSETEFTLTISSLQPDDFATYYCHQYKSYSYTFGQGTKLEIK
B7: antibody 382S (antibody, V domains shown)
VH: QVQLVQSGAEVKKPGSSVKVSCKASGGTFSNYGISWVRQAPGQGLEWMGRNIPIIGIANYAQKFQDRVTITADKSTSTVFMELRSLRYEDTAVYYCARDPLAARRGNWFDPWGQGTLVTVSS
VL: B6 VL with A9S, I29V, G30S, T31S, S53T, E55Q, P60S, E68G, H89Q, K92N
B8: antibody 338S (antibody, V domains shown)
VH: EVQLVESGGGVVQPGRSLRLSCAASGFTFSQYGMHWVRQAPGKGLECVAVIWFDGSKKYYGDSVKGRFTISRDNSKNTLYLQMNSLRAEDTAVYFCARESLYYYDSGGHYYERGRIDYWGQGTLVTVSS
VL: DIQMTQSPSSLSASVGDRVTITCRASQDISNFLAWFQQKPGKAPKSLIYAASSLLSGVPSKFSGSGSGTDFTLTISSLQPEDFATYYCQQYNSYPPTFGQGTKLEIK
B9: antibody 528S (antibody, V domains shown)
VH: EVQLAESGGGVVQPGRSLRLSCAASGFTFNSYGMHWVRQAPGKGLEWVAVIWDDGSKKYYADSVKGRFTISRDNSKNTLFLQMNSLRAEDTAVYYCARETIMFTFGEVIVSSRDNYYMDVWGKGTTVTVSS
VL: EIVLTQSPATLSLSPGERATLSCRASQSVSNYLAWYQQKPGQAPRLLIYDASTRAIGIPARFSGVGSGTDFTLTISSLEPEDFAVYYCQQRSNWPPLTFGGGTKVEIK
B10: antibody 315S (antibody, V domains shown)
VH: EVQLVESGGGVVQPGRSLRLSCAASGFTFKTYTMHWVRQAPGKGLEWVAVITDDGVNKKYADSVKGRFTISRDNSKNTLYLQMNSLRLEDTAVYYCARSVVVLAAYPLDYWGQGTMVTVSS
VL: DIQMTQSPSSLSASVGDRVTITCRASQTISTYLHWYQQRPGKAPKLLIYAASSLQSGVPSRVSGSGSGTDFTLTITSLQPEDFATYYCLQTYSLPLTFGGGTNVEIK
B11: Fab generated from 241S (Fab, V domains shown)
VH: QVQLVQSGSELKKPGASVKVSCKASGYTFTSYTVNWVRQAPGQGLEWMGWINTNTGNPTYAQGFTGRFVFSSDTSVSTAYLQISDLKAEDTAMYYCARHVAYDLWSGHTVTFDHWGQGTLVTVSS
VL: QSALTQPPSASGSPGQSVTISCTGTSSDVGAYNYVSWYQQHPGKAPKLIIYEVTKRPSGVPDRFSGSKSGNTASLTVSGLQAEDEADYYCSSKAGGKTYVFGTGTKVTVL
B12: antibody 377S (antibody, V domains shown)
VH: QVQLVQSGAEVKKPGSSVKVSCKASGGTFSNYAINWVRQAPGQGLEWMGRTIPFLGLTNYAENFQARVTITADKSTGTSYMQLSSLRSEDTAVYFCAKAATSGWSPFDNWGQGTLVTVSS
VL: EIVLTQSPGTLSLSPGERATLSCRASQSISSSYFGWYQQKPGQAPRLLIYGASRRAAGIPDRFSCSGSGTDFTLTISRLEPEDFGVYYCQQYGSSPTFGQGTKVEIK
B13: antibody 405S (antibody, V domains shown)
VH: EVQLVESGGGLIQPGGSLRLSCAASGFTVSSHYMSWVRQAPGKGLEWVSGIYSGGRTHYADSVKGRFTISRDNSKNTLYLQMNSLRADDTAVYSCARGTLLYLYGMDVWGQGTTVTVSS
VL: QSVLTQPPSVSAAPGQRVTISCTGSSSNIGAGYNVHWYQQLPGAAPKLLIYGNTNRPSGVPDRFSGSKSGTSASLAITGLQAEDEADYYCQSFDSSLSGVFGTGTKVTVL
B14: antibody 335S (antibody, V domains shown)
VH: EVQLVESGGGVVQPGRSLRLSCAASGFSFSNYAMHWVRQAPGKGLEWVAVTWYDGSSKYHADSVKGRFTISRDNSKNTLYLQMNSLRAEDTAVYYCARWGMGIVASPGNVLNYYYFMDVWGQGTTVIVSS
VL: SYELTQPPSVSVSPGQTARITCSGNPLPKKHTYWYQQKPGQAPVLMIYKDSERPSRIPERFSGSSSGTTVTLTISGVQAEDEADYYCQSADSTGIVVFGGGTKLTVL

Assays:
[1] = target: T1, SUDV GP on pseudotyped lentiviral vector (Sudan virus (SUDV), UniProt Q7T9D9 33-676); test: cell-based or functional assay
T1 sequence: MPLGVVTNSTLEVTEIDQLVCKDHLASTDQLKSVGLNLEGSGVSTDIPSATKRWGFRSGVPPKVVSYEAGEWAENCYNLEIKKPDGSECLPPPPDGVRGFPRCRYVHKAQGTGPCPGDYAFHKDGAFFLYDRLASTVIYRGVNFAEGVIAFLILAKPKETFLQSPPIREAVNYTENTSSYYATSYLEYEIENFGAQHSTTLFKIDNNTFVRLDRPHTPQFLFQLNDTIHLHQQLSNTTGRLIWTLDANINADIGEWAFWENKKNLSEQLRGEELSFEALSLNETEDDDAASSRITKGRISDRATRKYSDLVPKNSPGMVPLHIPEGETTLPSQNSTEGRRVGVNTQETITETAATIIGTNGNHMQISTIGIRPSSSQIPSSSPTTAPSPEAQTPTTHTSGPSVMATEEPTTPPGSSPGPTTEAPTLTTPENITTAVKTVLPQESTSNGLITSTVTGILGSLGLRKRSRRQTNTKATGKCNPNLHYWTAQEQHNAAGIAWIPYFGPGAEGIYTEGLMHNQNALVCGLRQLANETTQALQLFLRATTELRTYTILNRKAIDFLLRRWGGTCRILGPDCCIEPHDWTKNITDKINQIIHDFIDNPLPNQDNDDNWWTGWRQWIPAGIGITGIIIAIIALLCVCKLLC

[2] = target: T2, full-length Sudan GP (GPFL) (Sudan virus (SUDV), UniProt Q7T9D9 33-650); test: ELISA on coated GP
T2 construct: also called Sudan GPFL; GP(S)FL
T2 sequence: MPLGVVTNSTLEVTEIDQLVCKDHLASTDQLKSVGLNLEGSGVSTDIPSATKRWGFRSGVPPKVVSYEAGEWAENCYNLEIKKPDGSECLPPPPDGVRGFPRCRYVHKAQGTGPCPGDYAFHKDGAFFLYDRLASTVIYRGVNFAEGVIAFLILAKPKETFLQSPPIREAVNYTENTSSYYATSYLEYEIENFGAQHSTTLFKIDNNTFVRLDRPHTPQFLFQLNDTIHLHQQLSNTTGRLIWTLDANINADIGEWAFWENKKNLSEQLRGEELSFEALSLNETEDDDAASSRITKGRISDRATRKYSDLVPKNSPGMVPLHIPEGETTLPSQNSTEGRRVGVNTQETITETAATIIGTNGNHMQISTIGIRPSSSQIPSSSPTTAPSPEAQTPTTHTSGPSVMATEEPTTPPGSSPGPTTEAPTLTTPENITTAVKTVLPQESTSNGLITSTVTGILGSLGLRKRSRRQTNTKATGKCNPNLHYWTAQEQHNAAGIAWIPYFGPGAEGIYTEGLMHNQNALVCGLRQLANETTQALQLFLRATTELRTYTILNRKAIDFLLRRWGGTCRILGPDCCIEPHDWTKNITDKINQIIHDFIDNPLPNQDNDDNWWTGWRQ

[3] = target: T2, full-length Sudan GP (GPFL); test: BLI, Fab, pH 5.3
[4] = target: T2, full-length Sudan GP (GPFL); test: BLI, Fab, pH 7.4

| Binder | IC50, microneutralization of GP-pseudotyped lentiviral vector on HEK293 cells [1] [µg/mL] | EC50 [2] [µg/mL] | Kd [3] [nM] | koff [3] [s⁻¹] | kon [3] [M⁻¹ s⁻¹] | Kd [4] [nM] | koff [4] [s⁻¹] | kon [4] [M⁻¹ s⁻¹] |
| --- | --- | --- | --- | --- | --- | --- | --- | --- |
| B1 | 0.79 | 0.11 |  |  |  |  |  |  |
| B2 |  |  | 7.56 | 0.000358 | 47300 | 7.53 | 0.000543 | 72100 |
| B3 |  |  | 6.12 | 0.000445 | 72700 | 8.89 | 0.00076 | 85600 |
| B4 |  |  | 6.58 | 0.000373 | 56700 | 19.5 | 0.00111 | 56800 |
| B5 | 0.64 | 0.02 |  |  |  |  |  |  |
| B6 | 0.04 | 0.5 |  |  |  |  |  |  |
| B7 | 0.71 | 0.35 |  |  |  |  |  |  |
| B8 | 0.6 | 0.03 |  |  |  |  |  |  |
| B9 | 0.58 | 0.05 |  |  |  |  |  |  |
| B10 | 0.15 | 0.01 |  |  |  |  |  |  |
| B11 |  |  | 6.36 | 0.000433 | 68200 | 3.47 | 0.000439 | 127000 |
| B12 | 0.56 | 0.14 |  |  |  |  |  |  |
| B13 | 0.79 | 0.06 |  |  |  |  |  |  |
| B14 | 0.63 | 0.02 |  |  |  |  |  |  |

Reference: patent US20260209316A1 (US Dept. of Health and Human Services, published 2026)
